Here are results for two substances from patent publication US20020042368A1.

For the assay, the target named is α6β1. α6β4 (human) (UniProt P23229). As to the kind of experiment: flow cytometry on HMVEC-d; dis-Fc binding with 5-8 fold excess α6β1/α6β4 mAb (GoH3, 439-9B; competitor) vs control mAb. (Flow cytometry measures light scatter and fluorescence of single cells or particles in a stream.)

ADAM-23dis-Fc (Fc fusion), sequence (chain): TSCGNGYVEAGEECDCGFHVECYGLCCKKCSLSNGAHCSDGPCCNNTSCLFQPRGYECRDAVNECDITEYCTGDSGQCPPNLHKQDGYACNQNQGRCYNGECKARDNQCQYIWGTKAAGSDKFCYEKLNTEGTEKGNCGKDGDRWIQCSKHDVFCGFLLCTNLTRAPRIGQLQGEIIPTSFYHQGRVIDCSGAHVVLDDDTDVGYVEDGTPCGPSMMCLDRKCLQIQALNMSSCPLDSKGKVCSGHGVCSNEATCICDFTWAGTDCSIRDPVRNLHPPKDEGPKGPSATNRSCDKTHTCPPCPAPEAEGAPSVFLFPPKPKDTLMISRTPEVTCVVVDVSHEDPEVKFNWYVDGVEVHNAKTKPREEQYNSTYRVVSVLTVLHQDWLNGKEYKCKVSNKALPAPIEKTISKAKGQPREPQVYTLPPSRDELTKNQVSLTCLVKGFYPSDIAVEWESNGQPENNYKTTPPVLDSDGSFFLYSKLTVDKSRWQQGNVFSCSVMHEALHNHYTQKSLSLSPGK
ADAM-22dis-Fc (Fc fusion), sequence (chain): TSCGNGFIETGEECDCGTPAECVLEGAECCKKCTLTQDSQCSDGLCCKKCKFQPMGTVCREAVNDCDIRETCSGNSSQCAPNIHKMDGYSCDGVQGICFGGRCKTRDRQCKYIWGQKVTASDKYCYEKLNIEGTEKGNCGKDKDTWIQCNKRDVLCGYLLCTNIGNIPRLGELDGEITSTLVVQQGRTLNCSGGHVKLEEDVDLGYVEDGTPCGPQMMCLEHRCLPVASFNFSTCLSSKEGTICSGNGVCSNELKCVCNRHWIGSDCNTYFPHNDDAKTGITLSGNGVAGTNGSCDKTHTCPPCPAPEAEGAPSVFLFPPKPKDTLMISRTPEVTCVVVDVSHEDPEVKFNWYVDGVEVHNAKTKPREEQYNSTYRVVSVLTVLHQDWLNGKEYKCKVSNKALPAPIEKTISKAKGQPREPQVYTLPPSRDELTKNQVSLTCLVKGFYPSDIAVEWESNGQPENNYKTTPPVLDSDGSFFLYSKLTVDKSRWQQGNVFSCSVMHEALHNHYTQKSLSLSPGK

As for ADAM-23dis-Fc (Fc fusion), the percent inhibition of binding came out at 31%.

ADAM-22dis-Fc (Fc fusion) came in with a percent inhibition of binding of 32%.
